Experimental data from patent US9951306B2, “Catalase in growth media” (EUCODIS BIOSCIENCE GMBH, priority 2012, dated 2018).

What was measured:
[1] = 8000 international units of catalase per plate; cited from earlier work
[2] = tested on: Bacillus subtilis ATCC 6633; assay: Growth promotion test: colonies on TSA-LT agar plates treated with hydrogen peroxide; format: cell-based; details: for Colonies on agar: no catalase, hydrogen peroxide as in Example 3; for Colonies on gamma-irradiated agar / Colonies on agar plates: 300 μl 1% hydrogen peroxide (100 ppm in medium); for Colonies on gamma-irradiated agar: gamma-irradiated 20.5 kGy; for Colonies on agar plates: not irradiated
[3] = tested on: Bacillus subtilis ATCC 6633; assay: Agar diffusion test: inhibition by hydrogen peroxide on TSA-LT agar plates with additives; format: cell-based; details: 10 μl on paper disc; for Inhibition on gamma-irradiated agar plates: gamma-irradiated 20.5 kGy; for Inhibition on agar plates: not irradiated
[4] = sodium pyruvate 2.00 g/l together with sodium thiosulfate 0.05 g/l
[5] = sodium pyruvate 2.00 g/l together with sodium thiosulfate 0.05 g/l, 2% hydrogen peroxide
[6] = sodium pyruvate 2.00 g/l together with sodium thiosulfate 0.05 g/l, 5% hydrogen peroxide
[7] = sodium pyruvate 2.00 g/l together with sodium thiosulfate 0.05 g/l, 8% hydrogen peroxide
[8] = sodium pyruvate 2.00 g/l together with sodium thiosulfate 0.05 g/l, 10% hydrogen peroxide
[9] = 80 U/plate, 2% hydrogen peroxide
[10] = 80 U/plate, 5% hydrogen peroxide
[11] = 80 U/plate, 8% hydrogen peroxide
[12] = 80 U/plate, 10% hydrogen peroxide
[13] = 150 U/plate, 2% hydrogen peroxide
[14] = 150 U/plate, 5% hydrogen peroxide
[15] = 150 U/plate, 8% hydrogen peroxide
[16] = 150 U/plate, 10% hydrogen peroxide
[17] = 300 U/plate, 2% hydrogen peroxide
[18] = 300 U/plate, 5% hydrogen peroxide
[19] = 300 U/plate, 8% hydrogen peroxide
[20] = 300 U/plate, 10% hydrogen peroxide

## catalase
[1]
  recovery: 60%

## CC(=O)C(=O)[O-].[Na+] [Sodium pyruvate, reference compound]
[2]; 0.2 g/l sodium pyruvate and 0.005 g/l sodium thiosulfate without catalase
  growth in agar plates with hydrogen peroxide: did not support growth
[2]; sodium pyruvate 0.20 g/l with sodium thiosulfate 0.005 g/l
  Colonies on agar: 0 CFU
[2]; [4]
  Colonies on gamma-irradiated agar: 229 CFU
  Colonies on agar plates: 161 CFU
[2]; sodium pyruvate 2.00 g/l with sodium thiosulfate 0.05 g/l
  Colonies on agar: 125 CFU
[3]; [5]
  Inhibition on gamma-irradiated agar plates: 0 mm
  Inhibition on agar plates: 0 mm
[3]; [6]
  Inhibition on gamma-irradiated agar plates: 1 mm
  Inhibition on agar plates: 1 mm
[3]; [7]
  Inhibition on gamma-irradiated agar plates: 2 mm
  Inhibition on agar plates: 2 mm
[3]; [8]
  Inhibition on gamma-irradiated agar plates: 3 mm
  Inhibition on agar plates: 2.5 mm

B1: Catalase from bovine liver: Catalase prepared from commercial product C9322 (Sigma), dissolved in 0.1 M potassium phosphate pH 7.0; comparator (protein, UniProt P00432 2-527, looked up)
Catalase: ADNRDPASDQMKHWKEQRAAQKPDVLTTGGGNPVGDKLNSLTVGPRGPLLVQDVVFTDEMAHFDRERIPERVVHAKGAGAFGYFEVTHDITRYSKAKVFEHIGKRTPIAVRFSTVAGESGSADTVRDPRGFAVKFYTEDGNWDLVGNNTPIFFIRDALLFPSFIHSQKRNPQTHLKDPDMVWDFWSLRPESLHQVSFLFSDRGIPDGHRHMNGYGSHTFKLVNANGEAVYCKFHYKTDQGIKNLSVEDAARLAHEDPDYGLRDLFNAIATGNYPSWTLYIQVMTFSEAEIFPFNPFDLTKVWPHGDYPLIPVGKLVLNRNPVNYFAEVEQLAFDPSNMPPGIEPSPDKMLQGRLFAYPDTHRHRLGPNYLQIPVNCPYRARVANYQRDGPMCMMDNQGGAPNYYPNSFSAPEHQPSALEHRTHFSGDVQRFNSANDDNVTQVRTFYLKVLNEEQRKRLCENIAGHLKDAQLFIQKKAVKNFSDVHPEYGSRIQALLDKYNEEKPKNAVHTYVQHGSHLSAREKANL
[2]; 80 U/plate
  Colonies on gamma-irradiated agar: 0 CFU
  Colonies on agar plates: 0 CFU
[2]; 150 U/plate
  Colonies on gamma-irradiated agar: 0 CFU
  Colonies on agar plates: 0 CFU
[2]; 300 U/plate
  Colonies on gamma-irradiated agar: 0 CFU
  Colonies on agar plates: 0 CFU
[2]; highest tested concentration of 300 U/plate, not irradiated medium
  recovery of the applied colony forming units: 0%
[3]; [9]
  Inhibition on gamma-irradiated agar plates: 3.5 mm
  Inhibition on agar plates: 1 mm
[3]; [10]
  Inhibition on gamma-irradiated agar plates: 7 mm
  Inhibition on agar plates: 5 mm
[3]; [11]
  Inhibition on gamma-irradiated agar plates: 8 mm
  Inhibition on agar plates: 6 mm
[3]; [12]
  Inhibition on gamma-irradiated agar plates: 8.5 mm
  Inhibition on agar plates: 7 mm
[3]; [13]
  Inhibition on gamma-irradiated agar plates: 2 mm
  Inhibition on agar plates: 0.5 mm
[3]; [14]
  Inhibition on gamma-irradiated agar plates: 6 mm
  Inhibition on agar plates: 4 mm
[3]; [15]
  Inhibition on gamma-irradiated agar plates: 7.5 mm
  Inhibition on agar plates: 5 mm
[3]; [16]
  Inhibition on gamma-irradiated agar plates: 8 mm
  Inhibition on agar plates: 6 mm
[3]; [17]
  Inhibition on gamma-irradiated agar plates: 1.5 mm
  Inhibition on agar plates: 0 mm
[3]; [18]
  Inhibition on gamma-irradiated agar plates: 5.5 mm
  Inhibition on agar plates: 2 mm
[3]; [19]
  Inhibition on gamma-irradiated agar plates: 6.5 mm
  Inhibition on agar plates: 4 mm
[3]; [20]
  Inhibition on gamma-irradiated agar plates: 7.5 mm
  Inhibition on agar plates: 4.5 mm
